Experimental data published in patent US20210171647A1.

How the values were obtained:
[1] = molecular target: xPro1.FL-x9: CRDmox40_2-4 (human; mouse) (UniProt P43489); assay: FACS, transfected 293F cells, antibody 1 ug/mL
[2] = molecular target: xPro1.FL-x11: CRDmox40_1,3,4 (human; mouse) (UniProt P47741); assay: FACS, transfected 293F cells, antibody 1 ug/mL
[3] = molecular target: xPro1.FL-x4: CRDmox40_4 (human; mouse) (UniProt P43489); assay: FACS, transfected 293F cells, antibody 1 ug/mL
[4] = molecular target: xPro1.FL-x10: CRDmox40_1,2,4 (human; mouse) (UniProt P47741); assay: FACS, transfected 293F cells, antibody 1 ug/mL
[5] = molecular target: xPro1.FL-x1: CRDmox40_1 (human; mouse) (UniProt P47741); assay: FACS, transfected 293F cells, antibody 1 ug/mL
[6] = molecular target: xPro1.FL-x6: CRDmox40_2-3 (human; mouse) (UniProt P43489); assay: FACS, transfected 293F cells, antibody 1 ug/mL
Chain of xPro1.FL-x6: CRDmox40_2-3 (human; mouse) (P43489 other isoform, or with tags, fused parts or gaps, form in doubt): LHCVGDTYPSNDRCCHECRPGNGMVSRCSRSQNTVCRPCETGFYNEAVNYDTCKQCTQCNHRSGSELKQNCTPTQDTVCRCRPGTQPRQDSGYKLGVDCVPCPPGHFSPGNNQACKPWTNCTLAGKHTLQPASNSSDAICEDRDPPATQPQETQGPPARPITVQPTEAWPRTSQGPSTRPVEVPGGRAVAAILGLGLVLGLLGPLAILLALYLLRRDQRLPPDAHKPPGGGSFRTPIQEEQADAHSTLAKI

[7] = molecular target: xPro1.FL-x7: CRDmox40_3-4 (human; mouse) (UniProt P43489); assay: FACS, transfected 293F cells, antibody 1 ug/mL
Chain of xPro1.FL-x7: CRDmox40_3-4 (human; mouse) (P43489 other isoform, or with tags, fused parts or gaps, form in doubt): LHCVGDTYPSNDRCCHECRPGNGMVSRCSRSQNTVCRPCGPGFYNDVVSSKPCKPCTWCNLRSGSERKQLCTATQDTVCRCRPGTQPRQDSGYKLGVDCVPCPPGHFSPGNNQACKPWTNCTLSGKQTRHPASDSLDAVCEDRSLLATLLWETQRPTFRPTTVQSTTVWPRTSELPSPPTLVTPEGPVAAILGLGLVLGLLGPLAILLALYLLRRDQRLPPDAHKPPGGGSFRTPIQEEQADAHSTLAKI

[8] = molecular target: xPro1.FL-x8: CRDmox40_1-3 (human; mouse) (UniProt P47741); assay: FACS, transfected 293F cells, antibody 1 ug/mL
[9] = molecular target: xPro1.FL-x3: CRDmox40_3 (human; mouse) (UniProt P43489); assay: FACS, transfected 293F cells, antibody 1 ug/mL
Chain of xPro1.FL-x3: CRDmox40_3 (human; mouse) (P43489 other isoform, or with tags, fused parts or gaps, form in doubt): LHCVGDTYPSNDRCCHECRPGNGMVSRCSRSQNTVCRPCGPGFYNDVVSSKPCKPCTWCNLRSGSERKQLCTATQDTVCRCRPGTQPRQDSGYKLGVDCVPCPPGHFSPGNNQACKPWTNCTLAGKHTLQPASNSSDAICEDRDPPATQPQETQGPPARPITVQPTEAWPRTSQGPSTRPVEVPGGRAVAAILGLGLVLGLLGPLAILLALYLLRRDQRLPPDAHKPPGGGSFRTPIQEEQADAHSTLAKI

[10] = molecular target: xPro1.FL-x5: CRDmox40_1-2 (human; mouse) (UniProt P47741); assay: FACS, transfected 293F cells, antibody 1 ug/mL
[11] = molecular target: xPro1.FL.x2: CRDmox40_2 (human; mouse) (UniProt P43489); assay: FACS, transfected 293F cells, antibody 1 ug/mL
Chain of xPro1.FL.x2: CRDmox40_2 (human; mouse) (P43489 other isoform, or with tags, fused parts or gaps, form in doubt): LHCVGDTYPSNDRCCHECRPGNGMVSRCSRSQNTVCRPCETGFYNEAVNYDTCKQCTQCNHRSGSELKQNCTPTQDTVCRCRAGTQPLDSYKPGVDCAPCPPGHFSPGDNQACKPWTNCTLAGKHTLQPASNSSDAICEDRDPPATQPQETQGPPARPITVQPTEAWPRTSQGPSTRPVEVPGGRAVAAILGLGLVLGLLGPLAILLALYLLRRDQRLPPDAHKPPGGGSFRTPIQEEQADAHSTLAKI

[12] = molecular target: human OX40 extracellular domain (ECD) protein (human) (UniProt P43489); assay: competition ELISA: human OX40 ECD coated, antibody titrated in a mix with a constant concentration of OX40L, bound OX40L detected at OD450
Chain of human OX40 extracellular domain (ECD) protein (human) (P43489 29-214): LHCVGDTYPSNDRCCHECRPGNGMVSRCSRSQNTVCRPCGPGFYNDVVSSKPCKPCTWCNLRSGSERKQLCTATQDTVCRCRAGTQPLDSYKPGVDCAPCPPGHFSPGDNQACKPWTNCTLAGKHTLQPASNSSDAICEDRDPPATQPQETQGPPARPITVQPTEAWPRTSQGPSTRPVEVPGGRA

[13] = molecular target: human OX40, full-length, on cells (human) (UniProt P43489); assay: flow cytometry, MFI against antibody concentration; neither the legend nor paragraph 266 names the cells, target taken as cell-surface human OX40 because the antibodies are anti-OX40
Chain of human OX40, full-length, on cells (human) (P43489 29-277): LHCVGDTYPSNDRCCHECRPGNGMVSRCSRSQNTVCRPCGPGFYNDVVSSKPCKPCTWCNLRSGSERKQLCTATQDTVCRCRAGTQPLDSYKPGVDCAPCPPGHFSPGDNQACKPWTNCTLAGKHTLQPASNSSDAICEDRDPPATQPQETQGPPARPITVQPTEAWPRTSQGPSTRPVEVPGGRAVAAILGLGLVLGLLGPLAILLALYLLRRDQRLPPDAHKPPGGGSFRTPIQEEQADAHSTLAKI

[14] = molecular target: human OX40, full-length, on cells (human) (UniProt P43489); assay: flow cytometry on activated human CD4+ T cells
[15] = molecular target: human OX40, full-length, on cells (human) (UniProt P43489); assay: flow cytometry on human OX40 transfected CHO-K1 cells
[16] = molecular target: human OX40 extracellular domain (ECD) protein (human) (UniProt P43489); assay: epitope binning by competition against labelled BMK10 on human OX40 (self-competition control); the antibody named in the legend box is titrated; the text describes an ELISA, the axis on the sheet reads MFI
[17] = molecular target: mouse OX40 (mPro1) on transfected 293F cells (mouse) (UniProt P47741); assay: FACS, transfected 293F cells, antibody 2 ug/mL
Chain of mouse OX40 (mPro1) on transfected 293F cells (mouse) (P47741 20-272): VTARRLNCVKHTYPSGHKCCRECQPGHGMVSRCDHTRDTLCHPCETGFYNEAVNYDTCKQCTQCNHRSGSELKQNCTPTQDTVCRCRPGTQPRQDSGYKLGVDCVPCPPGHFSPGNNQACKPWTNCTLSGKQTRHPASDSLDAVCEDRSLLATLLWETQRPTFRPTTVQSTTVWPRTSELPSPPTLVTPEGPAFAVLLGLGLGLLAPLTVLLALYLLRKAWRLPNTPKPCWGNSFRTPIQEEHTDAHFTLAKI

[18] = molecular target: human CD40 (hPro40) on transfected 293F cells (human) (UniProt P25942); assay: FACS, transfected 293F cells, antibody 2 ug/mL
Chain of human CD40 (hPro40) on transfected 293F cells (human) (P25942 21-277): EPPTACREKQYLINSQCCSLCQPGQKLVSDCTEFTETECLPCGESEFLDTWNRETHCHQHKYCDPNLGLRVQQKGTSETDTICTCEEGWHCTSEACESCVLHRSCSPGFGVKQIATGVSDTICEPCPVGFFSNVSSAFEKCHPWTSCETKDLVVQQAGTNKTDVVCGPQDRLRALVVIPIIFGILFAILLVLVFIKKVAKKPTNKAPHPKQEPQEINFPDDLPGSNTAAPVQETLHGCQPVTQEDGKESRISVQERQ

[19] = molecular target: human OX40, full-length, on cells (human) (UniProt P43489); assay: FACS, transfected 293F cells, antibody 2 ug/mL
[20] = molecular target: human OX40 extracellular domain (ECD) protein (human) (UniProt P43489); assay: SPR, Biacore T200, antibody captured, OX40 as analyte
[21] = molecular target: human OX40, full-length, on cells (human) (UniProt P43489); assay: flow cytometry, CHO-K1 cells expressing human OX40, MESF beads

Chain of xPro1.FL-x9: CRDmox40_2-4 (human; mouse) (P43489 other isoform, or with tags, fused parts or gaps, form in doubt): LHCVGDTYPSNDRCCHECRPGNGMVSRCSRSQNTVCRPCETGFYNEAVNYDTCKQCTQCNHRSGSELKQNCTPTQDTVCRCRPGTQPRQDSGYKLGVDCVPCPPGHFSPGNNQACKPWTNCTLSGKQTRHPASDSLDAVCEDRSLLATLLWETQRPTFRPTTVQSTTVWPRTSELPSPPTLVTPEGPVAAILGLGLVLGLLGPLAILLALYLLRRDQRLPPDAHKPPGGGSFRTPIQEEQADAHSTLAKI
Chain of xPro1.FL-x4: CRDmox40_4 (human; mouse) (P43489 other isoform, or with tags, fused parts or gaps, form in doubt): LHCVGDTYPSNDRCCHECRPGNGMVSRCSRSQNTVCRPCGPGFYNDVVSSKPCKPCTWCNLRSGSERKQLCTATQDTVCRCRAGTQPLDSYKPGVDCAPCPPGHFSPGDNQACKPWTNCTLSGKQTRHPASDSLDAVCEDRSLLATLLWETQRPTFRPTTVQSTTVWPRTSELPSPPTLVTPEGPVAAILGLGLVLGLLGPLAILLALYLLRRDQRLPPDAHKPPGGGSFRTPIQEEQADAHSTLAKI

MFI [1] | PE + % [1] | MFI [2] | PE + % [2] | MFI [3] | PE + % [3] | MFI [4] | PE + % [4] | MFI [5] | PE + % [5] | MFI [6] | PE + % [6] | MFI [7] | PE + % [7] | MFI [8] | PE + % [8] | MFI [9] | PE + % [9] | MFI [10] | PE + % [10] | Binder | also measured
80.1 | 0.244% | 6260 | 70.8% | 23200 | 97.7% | 19600 | 94.4% | 5420 | 82.9% | 113 | 2.31% | 6540 | 81.5% | 42.6 | 0.743% | 2250 | 70% | 21700 | 96.5% | 1.214.23-u1-IgG1K (antibody, V domains shown) VH: QVQLQESGPGLVKPSGTLSLTCVVSGGSISNRNWWSWVRQPPGKGLEWIGEIFHSGNTNYNPSLKSRVTISVDKSKNQFSLKVNSVTAADTAVYYCAKSFAVALDSWGQGTLVTVSS VL: DIQLTQSPSFLSASVGDRVTITCRASQDINSYLAWCQQKPGKAPKLLIYAASSLQSGVPSRFSGTGSGTEFTLTISSLQPEDFATYYCQQLFSYPITFGQGTRLEIK | MFI [11]: 23300; PE + % [11]: 92.8%
– | – | – | – | – | – | – | – | – | – | – | – | – | – | – | – | – | – | – | – | BMK10 (antibody, from another filing, V domains shown) VH: EVQLVQSGAEVKKPGASVKVSCKASGYTFTDSYMSWVRQAPGQGLEWIGDMYPDNGDSSYNQKFRERVTITRDTSTSTAYLELSSLRSEDTAVYYCVLAPRWYFSVWGQGTLVTVSS VL: DIQMTQSPSSLSASVGDRVTITCRASQDISNYLNWYQQKPGKAPKLLIYYTSRLRSGVPSRFSGSGSGTDFTLTISSLQPEDFATYYCQQGHTLPPTFGQGTKVEIK | IC50 (read off the curve) [12]: 3 nM; EC50 (read off the curve) [13]: 0.8 nM; EC50 (read off the curve) [14]: 0.7 nM; EC50 (read off the curve) [15]: 0.6 nM; IC50 (read off the curve) [16]: 6 nM; MFI [17]: 5000; PE + % [17]: 91.6%; MFI [18]: 28.8; PE + % [18]: 0.068%; MFI [19]: 27600; PE + % [19]: 98.3%; kon [20]: 442000 M⁻¹ s⁻¹; Kd [21]: 0.23 nM
44.1 | 0.668% | 9400 | 74% | 24100 | 96.6% | 42.7 | 0.624% | 6440 | 75.3% | 211 | 6.75% | 9160 | 80.3% | 43.2 | 0.678% | 3800 | 66.1% | 61 | 1.73% | 1.134.9-u1-IgG1L (antibody, V domains shown) VH: QVQLQESGPGLVKPSGTLSLTCAVSGGSISSYNWWSWVRQPPGKGLEWIGEIYHGGNTNYNPSLKSRVTMSVDNSKNQFSLKLSSVTAADTAVYYCARAPGDWGGSPYFDFWGQGTLVTVSS VL: SSELTQDPAVSVALGQTVRITCQGDNLRTYYASWYQQKPGQAPILLIYGRNKRPSGIPDRFSGSSSGNTASLTITGAQAEDEAAYYCNSRDSSGNPVVFGGGTKLTVL | MFI [11]: 49.5; PE + % [11]: 0.904%
